Measured values from IntAct's records for PubMed 29039417.

B1: BBSome complex member BBS2 (Homo sapiens), Q9BXC9 (parent)
chain: MLLPVFTLKLRHKISPRMVAIGRYDGTHPCLAAATQTGKVFIHNPHTRNQHVSASRVFQSPLESDVSLLSINQAVSCLTAGVLNPELGYDALLVGTQTNLLAYDVYNNSDLFYREVADGANAIVLGTLGDISSPLAIIGGNCALQGFNHEGSDLFWTVTGDNVNSLALCDFDGDGKKELLVGSEDFDIRVFKEDEIVAEMTETEIVTSLCPMYGSRFGYALSNGTVGVYDKTSRYWRIKSKNHAMSIHAFDLNSDGVNELITGWSNGKVDARSDRTGEVIFKDNFSSAIAGVVEGDYRMDGHIQLICCSVDGEIRGYLPGTAEMRGNLMDTSAEQDLIRELSQKKQNLLLELRNYEENAKAELASPLNEADGHRGIIPANTRLHTTLSVSLGNETQTAHTELRISTSNDTIIRAVLIFAEGIFTGESHVVHPSIHNLSSSICIPIVPPKDVPVDLHLKAFVGYRSSTQFHVFESTRQLPRFSMYALTSLDPASEPISYVNFTIAERAQRVVVWLGQNFLLPEDTHIQNAPFQVCFTSLRNGGHLHIKIKLSGEITINTDDIDLAGDIIQSMASFFAIEDLQVEADFPVYFEELRKVLVKVDEYHSVHQKLSADMADHSNLIRSLLVGAEDARLMRDMKTMKSRYMELYDLNRDLLNGYKIRCNNHTELLGNLKAVNQAIQRAGRLRVGKPKNQVITACRDAIRSNNINTLFKIMRVGTASS
partner: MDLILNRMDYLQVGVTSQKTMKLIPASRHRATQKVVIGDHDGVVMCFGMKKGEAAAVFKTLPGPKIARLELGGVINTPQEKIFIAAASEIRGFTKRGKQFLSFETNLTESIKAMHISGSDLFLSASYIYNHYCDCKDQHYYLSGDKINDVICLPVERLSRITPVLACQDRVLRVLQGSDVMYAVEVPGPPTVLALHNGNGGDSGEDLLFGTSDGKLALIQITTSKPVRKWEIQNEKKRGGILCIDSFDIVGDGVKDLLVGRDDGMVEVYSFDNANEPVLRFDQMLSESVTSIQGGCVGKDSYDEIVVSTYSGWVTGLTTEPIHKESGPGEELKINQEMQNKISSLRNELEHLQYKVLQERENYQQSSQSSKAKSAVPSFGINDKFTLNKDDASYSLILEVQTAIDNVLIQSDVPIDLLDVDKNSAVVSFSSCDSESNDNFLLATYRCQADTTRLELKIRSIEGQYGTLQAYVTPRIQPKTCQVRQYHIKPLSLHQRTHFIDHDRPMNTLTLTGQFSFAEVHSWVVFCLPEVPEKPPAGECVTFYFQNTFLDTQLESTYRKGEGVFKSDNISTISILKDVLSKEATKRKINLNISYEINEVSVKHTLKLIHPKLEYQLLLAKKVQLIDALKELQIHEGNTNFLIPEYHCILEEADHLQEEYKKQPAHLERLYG

Variants of: B1
Conditions: with BBS7, Q8IWZ6-2

effect of a mutation on the interaction	Variant
disrupting interaction strength	V389K
with no effect	V389A
with no effect	V389E
disrupting interaction strength	L387K
with no effect	L387A
with no effect	L387E
with no effect	H399K
with no effect	H399A
with no effect	H399E
with no effect	A398E
with no effect	A398K
with no effect	N393A
with no effect	N393K
with no effect	N393E
with no effect	G392K
with no effect	G392A
with no effect	G392E
with no effect	T386E
with no effect	T386A
with no effect	T386K
with no effect	T397E
with no effect	T397K
with no effect	T397A
with no effect	T395K
with no effect	T395A
with no effect	T395E

effect of a mutation on the interaction	Variant
with no effect	Q396A
with no effect	Q396E
with no effect	Q396K
with no effect	H384K
with no effect	H384A
disrupting interaction strength	H384P
with no effect	H384E
with no effect	E394A
with no effect	E394K
with no effect	L391E
with no effect	L391A
with no effect	L391K
with no effect	E401A
with no effect	E401K
with no effect	T385A
disrupting interaction strength	T385E
with no effect	T385K
with no effect	S388K
with no effect	S388A
with no effect	S388E
with no effect	T400E
with no effect	T400K
with no effect	T400A
with no effect	S390K
with no effect	S390E
with no effect	S390A

Second part, the variant before the results:

Variant	effect of a mutation on the interaction
T381E	with no effect
T381A	with no effect
T381K	with no effect
I377K	with no effect
I377E	with no effect
I377R	disrupting interaction strength
I377A	with no effect
P378E	with no effect
P378A	with no effect
P378K	with no effect
H373E	with no effect
H373A	with no effect
H373K	with no effect
A379K	with no effect
A379E	with no effect
G375A	with no effect
G375K	with no effect
G375E	with no effect
R382K	with no effect

Variant	effect of a mutation on the interaction
R382A	with no effect
R382E	with no effect
N380E	disrupting interaction strength
N380K	with no effect
N380A	with no effect
G372A	with no effect
G372K	with no effect
G372E	with no effect
I376F	disrupting interaction strength
I376A	with no effect
I376K	with no effect
I376E	with no effect
R374K	with no effect
R374E	with no effect
R374A	with no effect
L383A	disrupting interaction strength
L383K	with no effect
L383E	disrupting interaction strength
